Molecular target: ALG-1(anti) (C. elegans (endogenous in whole animals))
Assay: co-IP; ALG-1 immunoprecipitated with a custom ALG-1-specific polyclonal antibody (Anaspec) from whole protein lysate of wild type or alg-1(anti) animals; precipitate probed by Western blot with anti-ALG-1, anti-DCR-1 and anti-AIN-1; signals quantified as ratios to ALG-1 and normalised to wild type

fold decrease in co-precipitated AIN-1 against wild type ALG-1 [fold] | fold decrease in co-precipitated AIN-1 against wild type ALG-1 (average of biological replicates) [fold] | fold increase in co-precipitated DCR-1 against wild type ALG-1 [fold] | Substance
3 | 2 |  | AIN-1 (GW182) (natural protein)
 |  | 4 | DCR-1 (Dicer) (from UniProt P34529 1-1910) (enzyme)
